The sequences below were run on Escherichia coli TOP10 (assay: shrunken log2 fold change of peptide-encoding DNA abundance (4.5 h post-induction vs induction); higher = less antimicrobial activity (less host growth inhibition)). Settings: time post-induction: 4.5 h; library: site-saturation at positions 5, 18, 19, 20.
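Also: peptides expressed intracellularly from a pBAD plasmid library in pooled LB shake-flask culture, induced with 0.3% L-arabinose, DNA abundance read by NGS, three biological replicates, DESeq2 with apeglm shrinkage.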

| Sequence | shrunken log2 fold change |
| --- | --- |
| RRIRMRPPRLPRPRPRPYDNPRP | 0.213 |
| RRIRTRPPRLPRPRPRPADPPRP | 0.0203 |
| RRIRGRPPRLPRPRPRPYWYPRP | -0.211 |
| RRIRQRPPRLPRPRPRPCVNPRP | 0.0293 |
| RRIRIRPPRLPRPRPRPVPPPRP | 0.144 |
| RRIRMRPPRLPRPRPRPARWPRP | 1.49 |
| RRIRERPPRLPRPRPRPDKFPRP | -0.466 |
| RRIRKRPPRLPRPRPRPNWRPRP | 1.32 |
| RRIRKRPPRLPRPRPRPTFLPRP | 0.228 |
| RRIRFRPPRLPRPRPRPEYVPRP | -0.15 |
| RRIRMRPPRLPRPRPRPIENPRP | -0.142 |
| RRIRQRPPRLPRPRPRPIIIPRP | -0.197 |
| RRIRFRPPRLPRPRPRPKEHPRP | -0.357 |
| RRIRLRPPRLPRPRPRPTKFPRP | -0.0571 |
| RRIRERPPRLPRPRPRPADHPRP | -0.0618 |
| RRIRARPPRLPRPRPRPVDYPRP | 0.197 |
| RRIRMRPPRLPRPRPRPVLEPRP | 0.426 |
| RRIRVRPPRLPRPRPRPFCRPRP | -0.215 |
| RRIRRRPPRLPRPRPRPHGRPRP | 0.0549 |
| RRIRPRPPRLPRPRPRPDWRPRP | 0.321 |
| RRIRLRPPRLPRPRPRPQTWPRP | 0.0171 |
| RRIRERPPRLPRPRPRPVPSPRP | -0.0655 |
| RRIRQRPPRLPRPRPRPWRLPRP | -0.0759 |
| RRIRPRPPRLPRPRPRPPEWPRP | 0.443 |
| RRIRIRPPRLPRPRPRPMIKPRP | -0.761 |

| Sequence | shrunken log2 fold change |
| --- | --- |
| RRIRNRPPRLPRPRPRPPQWPRP | 0.315 |
| RRIRGRPPRLPRPRPRPCWDPRP | 0.217 |
| RRIRARPPRLPRPRPRPQHKPRP | 0.292 |
| RRIRVRPPRLPRPRPRPAHLPRP | -0.0953 |
| RRIRKRPPRLPRPRPRPSKHPRP | 0.0908 |
| RRIRGRPPRLPRPRPRPLSSPRP | 0.598 |
| RRIRFRPPRLPRPRPRPWAGPRP | 0.116 |
| RRIRVRPPRLPRPRPRPTSFPRP | -0.0728 |
| RRIRCRPPRLPRPRPRPKFKPRP | -0.287 |
| RRIRWRPPRLPRPRPRPQMNPRP | -0.243 |
| RRIRIRPPRLPRPRPRPYWGPRP | -0.151 |
| RRIRIRPPRLPRPRPRPLGIPRP | 0.132 |
| RRIRSRPPRLPRPRPRPTEIPRP | -0.0163 |
| RRIRFRPPRLPRPRPRPGWPPRP | 0.489 |
| RRIRNRPPRLPRPRPRPYAQPRP | -0.55 |
| RRIRSRPPRLPRPRPRPKMLPRP | -0.149 |
| RRIRIRPPRLPRPRPRPVHYPRP | -0.497 |
| RRIRGRPPRLPRPRPRPAPCPRP | 0.426 |
| RRIRDRPPRLPRPRPRPSDQPRP | 0.204 |
| RRIRNRPPRLPRPRPRPPKQPRP | 0.22 |
| RRIRERPPRLPRPRPRPQSAPRP | -0.227 |
| RRIRPRPPRLPRPRPRPNHKPRP | -0.385 |
| RRIRIRPPRLPRPRPRPHDHPRP | -0.174 |
| RRIRPRPPRLPRPRPRPNGVPRP | -0.0233 |
| RRIRLRPPRLPRPRPRPCYSPRP | -0.142 |

| Sequence | shrunken log2 fold change |
| --- | --- |
| RRIRVRPPRLPRPRPRPMVNPRP | -0.158 |
| RRIRGRPPRLPRPRPRPHIHPRP | -0.0259 |
| RRIRERPPRLPRPRPRPMWCPRP | 0.0762 |
| RRIRYRPPRLPRPRPRPPCCPRP | -0.149 |
| RRIRHRPPRLPRPRPRPCSCPRP | -0.0391 |
| RRIRTRPPRLPRPRPRPVHPPRP | -0.579 |
| RRIRIRPPRLPRPRPRPQQTPRP | -0.169 |
| RRIRPRPPRLPRPRPRPFENPRP | -0.00884 |
| RRIRMRPPRLPRPRPRPNPAPRP | 0.201 |
| RRIRNRPPRLPRPRPRPVCSPRP | -0.19 |
| RRIRPRPPRLPRPRPRPLYFPRP | -0.602 |
| RRIRLRPPRLPRPRPRPNKDPRP | -0.683 |
| RRIRIRPPRLPRPRPRPGFSPRP | -0.0749 |
| RRIRIRPPRLPRPRPRPWPRPRP | 0.277 |
| RRIRKRPPRLPRPRPRPCSTPRP | 0.0274 |
| RRIRWRPPRLPRPRPRPAGPPRP | 0.235 |
| RRIRRRPPRLPRPRPRPIWQPRP | 0.0175 |
| RRIRTRPPRLPRPRPRPICVPRP | -0.289 |
| RRIRDRPPRLPRPRPRPSEVPRP | 0.561 |
| RRIRHRPPRLPRPRPRPKSVPRP | -0.0127 |
| RRIRGRPPRLPRPRPRPPDTPRP | 1 |
| RRIRERPPRLPRPRPRPWRMPRP | -0.13 |
| RRIRGRPPRLPRPRPRPADGPRP | -0.133 |
| RRIRVRPPRLPRPRPRPQFSPRP | -0.0362 |
| RRIRMRPPRLPRPRPRPNWTPRP | 0.132 |

| Sequence | shrunken log2 fold change |
| --- | --- |
| RRIRDRPPRLPRPRPRPILCPRP | 0.0322 |
| RRIRYRPPRLPRPRPRPWTAPRP | -0.283 |
| RRIRARPPRLPRPRPRPKKKPRP | 0.119 |
| RRIRGRPPRLPRPRPRPFDFPRP | 0.26 |
| RRIRFRPPRLPRPRPRPFTSPRP | -0.316 |
| RRIRRRPPRLPRPRPRPMAHPRP | 0.0412 |
| RRIRWRPPRLPRPRPRPYMLPRP | -0.298 |
| RRIRNRPPRLPRPRPRPKFFPRP | -0.298 |
| RRIRPRPPRLPRPRPRPSNAPRP | 0.055 |
| RRIRSRPPRLPRPRPRPWKQPRP | -0.00145 |
| RRIRNRPPRLPRPRPRPQEPPRP | 0.084 |
| RRIRWRPPRLPRPRPRPSERPRP | 0.415 |
| RRIRARPPRLPRPRPRPCWGPRP | 0.205 |
| RRIRTRPPRLPRPRPRPCITPRP | -0.96 |
| RRIRKRPPRLPRPRPRPGTQPRP | 0.114 |
| RRIRQRPPRLPRPRPRPWDRPRP | -0.127 |
| RRIRLRPPRLPRPRPRPIPSPRP | -0.177 |
| RRIRKRPPRLPRPRPRPNAYPRP | -0.082 |
| RRIRNRPPRLPRPRPRPMIAPRP | -0.42 |
| RRIRARPPRLPRPRPRPEGAPRP | 1.37 |
| RRIRTRPPRLPRPRPRPQNDPRP | -0.749 |
| RRIRLRPPRLPRPRPRPYWIPRP | -0.00778 |
| RRIRVRPPRLPRPRPRPGACPRP | 0.0218 |
| RRIRKRPPRLPRPRPRPHWFPRP | 0.096 |
| RRIRERPPRLPRPRPRPCGQPRP | -0.0982 |

| Sequence | shrunken log2 fold change |
| --- | --- |
| RRIRARPPRLPRPRPRPLYEPRP | 0.000796 |
| RRIRRRPPRLPRPRPRPLKSPRP | -0.215 |
| RRIRMRPPRLPRPRPRPYNAPRP | -0.439 |
| RRIRLRPPRLPRPRPRPCWFPRP | -0.21 |
| RRIRDRPPRLPRPRPRPNENPRP | -0.177 |
| RRIRMRPPRLPRPRPRPFRTPRP | -0.21 |
| RRIRCRPPRLPRPRPRPTCHPRP | 0.0303 |
| RRIRERPPRLPRPRPRPLVYPRP | -0.309 |
| RRIRARPPRLPRPRPRPHRCPRP | 0.0993 |
| RRIRQRPPRLPRPRPRPEEWPRP | 0.0824 |
| RRIRQRPPRLPRPRPRPSMIPRP | -0.603 |
| RRIRVRPPRLPRPRPRPITQPRP | -0.0754 |
| RRIRSRPPRLPRPRPRPHMNPRP | -0.548 |
| RRIRLRPPRLPRPRPRPCHQPRP | -0.234 |
| RRIRMRPPRLPRPRPRPINFPRP | -0.0648 |
| RRIRKRPPRLPRPRPRPCYSPRP | -0.178 |
| RRIRLRPPRLPRPRPRPWNQPRP | 0.0295 |
| RRIRKRPPRLPRPRPRPSEQPRP | 0.0244 |
| RRIRMRPPRLPRPRPRPAMLPRP | 1.22 |
| RRIRKRPPRLPRPRPRPHYPPRP | -0.16 |
| RRIRHRPPRLPRPRPRPNMSPRP | -0.245 |
| RRIRWRPPRLPRPRPRPSFWPRP | 0.372 |
| RRIRKRPPRLPRPRPRPNILPRP | -0.193 |
| RRIRHRPPRLPRPRPRPSQYPRP | -0.372 |
| RRIRFRPPRLPRPRPRPGEWPRP | -0.0225 |

| Sequence | shrunken log2 fold change |
| --- | --- |
| RRIRDRPPRLPRPRPRPFDYPRP | -0.224 |
| RRIRHRPPRLPRPRPRPNRFPRP | -0.00088 |
| RRIRRRPPRLPRPRPRPLELPRP | 0.199 |
| RRIRTRPPRLPRPRPRPCPCPRP | -0.366 |
| RRIRTRPPRLPRPRPRPYHFPRP | -0.28 |
| RRIRKRPPRLPRPRPRPICIPRP | 0.163 |
| RRIRRRPPRLPRPRPRPLEQPRP | 0.166 |
| RRIRSRPPRLPRPRPRPLEIPRP | 0.11 |
| RRIRCRPPRLPRPRPRPWVHPRP | -0.169 |
| RRIRNRPPRLPRPRPRPHQCPRP | -0.0318 |
| RRIRQRPPRLPRPRPRPRGAPRP | 0.399 |
| RRIRLRPPRLPRPRPRPWMPPRP | -0.0741 |
| RRIRDRPPRLPRPRPRPMFNPRP | -0.0203 |
| RRIRPRPPRLPRPRPRPNSWPRP | -0.299 |
| RRIRFRPPRLPRPRPRPNICPRP | -0.252 |
| RRIRKRPPRLPRPRPRPMPKPRP | 0.421 |
| RRIRLRPPRLPRPRPRPTVQPRP | -0.191 |
| RRIRMRPPRLPRPRPRPIYIPRP | -0.156 |
| RRIRYRPPRLPRPRPRPLAVPRP | -0.0867 |
| RRIRIRPPRLPRPRPRPTQNPRP | 0.19 |
| RRIRSRPPRLPRPRPRPNRSPRP | -0.0737 |
| RRIRDRPPRLPRPRPRPYQSPRP | -1.12 |
| RRIRTRPPRLPRPRPRPTKWPRP | -0.0752 |
| RRIRARPPRLPRPRPRPNIFPRP | 0.0429 |
| RRIRMRPPRLPRPRPRPPEQPRP | 0.956 |
